Measured values: publication PMC10397247

Key:
Test in all cases: two-hybrid library CCmax;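 note: natural log of median RNA to DNA barcode read ratio; higher means stronger binding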
4H2473-AA = molecular target: T1, 4H2473-AA; conditions: mean of both orientations
T1 chain: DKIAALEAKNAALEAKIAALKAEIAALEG

4H1626-AA = molecular target: T2, 4H1626-AA; conditions: mean of both orientations
T2 chain: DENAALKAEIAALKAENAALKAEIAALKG

4H3120-AA = molecular target: T3, 4H3120-AA; conditions: mean of both orientations
T3 chain: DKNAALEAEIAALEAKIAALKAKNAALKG

4H1597-AA = molecular target: T4, 4H1597-AA
T4 chain: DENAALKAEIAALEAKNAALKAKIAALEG

4H2330-AA = molecular target: T5, 4H2330-AA; conditions: mean of both orientations
T5 chain: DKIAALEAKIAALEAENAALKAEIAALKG

4H3590-AA = molecular target: T6, 4H3590-AA; conditions: mean of both orientations
T6 chain: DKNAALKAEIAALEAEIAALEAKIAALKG

4H1877-AA = molecular target: T7, 4H1877-AA; conditions: mean of both orientations
T7 chain: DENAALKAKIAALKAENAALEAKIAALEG

4H2389-AA = molecular target: T8, 4H2389-AA; conditions: mean of both orientations
T8 chain: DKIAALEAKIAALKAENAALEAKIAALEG

4H2865-AA = molecular target: T9, 4H2865-AA; conditions: mean of both orientations
T9 chain: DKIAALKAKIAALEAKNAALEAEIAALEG

4H891-AA = molecular target: T10, 4H891-AA; conditions: mean of both orientations
T10 chain: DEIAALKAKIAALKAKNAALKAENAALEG

4H2649-AA = molecular target: T11, 4H2649-AA; conditions: mean of both orientations
T11 chain: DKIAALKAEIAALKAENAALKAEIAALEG

4H174-AA = molecular target: T12, 4H174-AA; conditions: mean of both orientations
T12 chain: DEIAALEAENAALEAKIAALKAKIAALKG

4H2725-AA = molecular target: T13, 4H2725-AA; conditions: mean of both orientations
T13 chain: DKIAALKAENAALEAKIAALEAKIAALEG

4H850-AA = molecular target: T14, 4H850-AA; conditions: mean of both orientations
T14 chain: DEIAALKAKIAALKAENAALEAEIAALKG

4H745-AA = molecular target: T15, 4H745-AA; conditions: mean of both orientations
T15 chain: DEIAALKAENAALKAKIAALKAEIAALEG

4H3410-AA = molecular target: T16, 4H3410-AA; conditions: mean of both orientations
T16 chain: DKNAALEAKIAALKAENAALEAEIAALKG

4H2162-AA = molecular target: T17, 4H2162-AA; conditions: mean of both orientations
T17 chain: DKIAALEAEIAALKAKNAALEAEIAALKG

4H3395-AA = molecular target: T18, 4H3395-AA; conditions: mean of both orientations
T18 chain: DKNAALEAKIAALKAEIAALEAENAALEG

4H1842-AA = molecular target: T19, 4H1842-AA; conditions: mean of both orientations
T19 chain: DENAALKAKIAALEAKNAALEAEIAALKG

4H458-AA = molecular target: T20, 4H458-AA; conditions: mean of both orientations
T20 chain: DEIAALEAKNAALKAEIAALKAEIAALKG

4H930-AA = molecular target: T21, 4H930-AA
T21 chain: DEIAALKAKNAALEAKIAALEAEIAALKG

4H2274-AA = molecular target: T22, 4H2274-AA; conditions: mean of both orientations
T22 chain: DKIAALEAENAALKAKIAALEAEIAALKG

4H171-AA = molecular target: T23, 4H171-AA; conditions: mean of both orientations
T23 chain: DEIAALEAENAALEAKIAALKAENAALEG

4H629-AA = molecular target: T24, 4H629-AA; conditions: mean of both orientations
T24 chain: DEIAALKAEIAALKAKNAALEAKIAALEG

4H710-AA = molecular target: T25, 4H710-AA; conditions: mean of both orientations
T25 chain: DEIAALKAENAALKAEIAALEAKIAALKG

4H3016-AA = molecular target: T26, 4H3016-AA; conditions: mean of both orientations
T26 chain: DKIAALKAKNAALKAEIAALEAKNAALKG

4H485-AA = molecular target: T27, 4H485-AA; conditions: mean of both orientations
T27 chain: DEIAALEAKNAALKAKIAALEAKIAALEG

4H2253-AA = molecular target: T28, 4H2253-AA; conditions: mean of both orientations
T28 chain: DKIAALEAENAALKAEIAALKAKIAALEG

4H570-AA = molecular target: T29, 4H570-AA; conditions: mean of both orientations
T29 chain: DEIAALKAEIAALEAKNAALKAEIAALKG

4H909-AA = molecular target: T30, 4H909-AA; conditions: mean of both orientations
T30 chain: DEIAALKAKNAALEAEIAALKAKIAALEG

4H3009-AA = molecular target: T31, 4H3009-AA; conditions: mean of both orientations
T31 chain: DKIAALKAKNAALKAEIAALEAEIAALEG

4H3865-AA = molecular target: T32, 4H3865-AA; conditions: mean of both orientations
T32 chain: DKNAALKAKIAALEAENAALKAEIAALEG

4H94-AA = molecular target: T33, 4H94-AA; conditions: mean of both orientations
T33 chain: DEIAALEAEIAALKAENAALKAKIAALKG

4H536-AA = molecular target: T34, 4H536-AA; conditions: mean of both orientations
T34 chain: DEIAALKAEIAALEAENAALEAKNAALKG

4H2109-AA = molecular target: T35, 4H2109-AA; conditions: mean of both orientations
T35 chain: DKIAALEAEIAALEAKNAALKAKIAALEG

4H1864-AA = molecular target: T36, 4H1864-AA; conditions: mean of both orientations
T36 chain: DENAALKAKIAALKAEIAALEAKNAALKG

4H3753-AA = molecular target: T37, 4H3753-AA; conditions: mean of both orientations
T37 chain: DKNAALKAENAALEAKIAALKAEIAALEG

4H3697-AA = molecular target: T38, 4H3697-AA; conditions: mean of both orientations
T38 chain: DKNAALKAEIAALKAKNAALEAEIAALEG

4H2698-AA = molecular target: T39, 4H2698-AA; conditions: mean of both orientations
T39 chain: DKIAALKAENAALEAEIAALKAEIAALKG

4H310-AA = molecular target: T40, 4H310-AA; conditions: mean of both orientations
T40 chain: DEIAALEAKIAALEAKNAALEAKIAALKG

4H3165-AA = molecular target: T41, 4H3165-AA; conditions: mean of both orientations
T41 chain: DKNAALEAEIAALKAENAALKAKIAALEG

4H3381-AA = molecular target: T42, 4H3381-AA
T42 chain: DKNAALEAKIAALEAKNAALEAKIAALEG

4H2438-AA = molecular target: T43, 4H2438-AA; conditions: mean of both orientations
T43 chain: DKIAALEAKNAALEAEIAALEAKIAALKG

4H3130-AA = molecular target: T44, 4H3130-AA; conditions: mean of both orientations
T44 chain: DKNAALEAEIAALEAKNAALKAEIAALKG

4H797-AA = molecular target: T45, 4H797-AA; conditions: mean of both orientations
T45 chain: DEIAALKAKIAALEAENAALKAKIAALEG

- interaction score (4H2473-AA): -1.3
- interaction score (4H1626-AA): -1.36
- interaction score (4H3120-AA): -1.49
- interaction score (4H1597-AA): 0.478
- interaction score (4H2330-AA): -1.59
- interaction score (4H3590-AA): 0.533
- interaction score (4H1877-AA): 2.43
- interaction score (4H2389-AA): 2.15
- interaction score (4H2865-AA): 0.229
- interaction score (4H891-AA): -1.56
- interaction score (4H2649-AA): -0.826
- interaction score (4H174-AA): -0.236
- interaction score (4H2725-AA): 0.827
- interaction score (4H850-AA): 1.96
- interaction score (4H745-AA): -1.15
- interaction score (4H3410-AA): 2
- interaction score (4H2162-AA): -1.31
- interaction score (4H3395-AA): -1.14
- interaction score (4H1842-AA): -0.303
- interaction score (4H458-AA): -1.71
- interaction score (4H930-AA): -1.69
- interaction score (4H2274-AA): -1.74
- interaction score (4H171-AA): -0.742
- interaction score (4H629-AA): 0.0113
- interaction score (4H710-AA): -1.99
- interaction score (4H3016-AA): -1.4
- interaction score (4H485-AA): -1.53
- interaction score (4H2253-AA): -1.29
- interaction score (4H570-AA): -1.39
- interaction score (4H909-AA): -1.1
- interaction score (4H3009-AA): -1.02
- interaction score (4H3865-AA): 0.833
- interaction score (4H94-AA): -0.751
- interaction score (4H536-AA): -0.234
- interaction score (4H2109-AA): -1.06
- interaction score (4H1864-AA): 0.43
- interaction score (4H3753-AA): -0.89
- interaction score (4H3697-AA): 0.353
- interaction score (4H2698-AA): -0.556
- interaction score (4H310-AA): -0.161
- interaction score (4H3165-AA): -0.486
- interaction score (4H3381-AA): -0.659
- interaction score (4H2438-AA): -0.641
- interaction score (4H3130-AA): -1.55
- interaction score (4H797-AA): 0.0984
Binder: DENAALKAEIAALEAKNAALKAKIAALEG [4H1597-AA]
